Consider 24 molecules from patent publication US20180009859A1, “PHARMACOLOGICAL MODULATORS OF GABAA RECEPTORS AND THEIR USE” (priority 2015, published 2018).

Where a chain is given by its changes, count along the chain named. Like-named read-outs stand apart in the source and are kept apart here.

Data set [1] relates to GABAA receptors in SPMs. Type of data set: binding, rat. The following applies: for displacing ^125I-rMmTX2 (in words): SPMs; for Ki: read-out: equilibrium inhibition constant (Ki).
Data set [2] addresses GABAA receptors in SPMs. The data set is described as follows: [^3H]muscimol competition for binding to SPMs. Further details: species or system rat.
Data set [3] deals with hippocampal neurons. The data set is described as follows: Calcium imaging of hippocampal neurons (Ca^2+ oscillations). Type of data set: cell-based, rat. Conditions: 0.3 μM muscimol alone, n=9.
For data set [4], the target named is GABAA receptors of hippocampal neurons. The following applies: reported values; cited from earlier work.
Data set [5] has as its system GABAA receptors of hippocampal neurons. Type of data set: cell-based, mouse.
Data set [6] deals with GABAA receptors in rat brain synaptic plasma membranes (SPMs) (rat).
The target is the same in data set [7]. The data set is described as follows: ratio of the kinetic constants, radioligand binding to rat brain SPMs.
Data set [8] has the same target. This is another data set of the same source.
Data set [9] shares this target. This is another data set of the same source.
The subject of data set [10] is hippocampal neurons. Type of data set: cell-based, mouse. The following applies: 100 μM PTX, n=5.
The target in data set [11] is GABAA receptors in rat brain synaptic plasma membranes (SPMs) (rat). As to the kind of experiment: competition with 40 nM [3H]muscimol for rat brain SPMs.
Data set [12] shares this target. As to the kind of experiment: competition with 40 nM [3H]muscimol for rat brain SPMs, nonlinear fit for an allosteric modulator.
For data set [13], the target named is GABAA receptors of mouse hippocampal neurons (mouse). As to the kind of experiment: cell-based or functional assay.
For data set [14], the target named is GABAA receptors in rat brain synaptic plasma membranes (SPMs) (rat). The data set is described as follows: competition with 125I-rMmTX2 for rat brain SPMs.
Data set [15] relates to mice. The following applies: injection into mouse brain.
For data set [16], the system named is mice. The following applies: for activity when injected intravenously: mouse, in vivo.
Data set [17] has as its system GABAA receptors in SPMs. Type of data set: binding, rat.
Data set [18] deals with α1β2γ2 GABAA receptor (Rattus norvegicus, UniProt P62813+P63138). Type of data set: cell-based.
[19] abbreviates: read-out: EC50 for reducing ^125I-MmTX2 binding to SPMs.
Where [20] appears, read: sigmoidal dose-response fit, read-out: EC50 for reducing ^125I-MmTX2 binding to SPMs.

Sequence of α1β2γ2 GABAA receptor (P63138 25-474): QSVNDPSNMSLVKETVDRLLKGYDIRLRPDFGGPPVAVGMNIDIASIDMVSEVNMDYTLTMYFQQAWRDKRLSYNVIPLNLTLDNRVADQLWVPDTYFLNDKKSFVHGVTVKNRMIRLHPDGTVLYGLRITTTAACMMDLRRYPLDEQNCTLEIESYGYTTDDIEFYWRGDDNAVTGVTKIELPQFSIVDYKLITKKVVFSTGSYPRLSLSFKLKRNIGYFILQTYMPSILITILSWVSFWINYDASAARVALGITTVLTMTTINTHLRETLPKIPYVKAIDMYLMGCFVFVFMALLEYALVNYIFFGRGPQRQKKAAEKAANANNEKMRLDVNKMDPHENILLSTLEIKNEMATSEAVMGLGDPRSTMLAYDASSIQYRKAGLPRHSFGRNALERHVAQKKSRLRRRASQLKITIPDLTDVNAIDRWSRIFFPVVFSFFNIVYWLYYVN
Sequence of α1β2γ2 GABAA receptor (P62813 28-455): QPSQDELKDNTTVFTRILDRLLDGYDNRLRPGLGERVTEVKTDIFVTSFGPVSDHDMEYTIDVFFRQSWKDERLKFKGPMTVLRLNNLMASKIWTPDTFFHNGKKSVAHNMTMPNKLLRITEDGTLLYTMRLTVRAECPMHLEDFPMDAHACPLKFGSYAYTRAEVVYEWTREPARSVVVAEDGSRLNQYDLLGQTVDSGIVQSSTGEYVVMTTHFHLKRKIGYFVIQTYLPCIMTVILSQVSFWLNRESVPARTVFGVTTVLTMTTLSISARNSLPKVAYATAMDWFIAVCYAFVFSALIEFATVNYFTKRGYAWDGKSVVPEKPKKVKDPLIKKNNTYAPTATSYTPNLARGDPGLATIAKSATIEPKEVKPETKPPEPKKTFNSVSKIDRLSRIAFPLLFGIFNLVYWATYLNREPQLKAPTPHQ
Sequence of α1β2γ2 GABAA receptor (P18508 39-466, further chain): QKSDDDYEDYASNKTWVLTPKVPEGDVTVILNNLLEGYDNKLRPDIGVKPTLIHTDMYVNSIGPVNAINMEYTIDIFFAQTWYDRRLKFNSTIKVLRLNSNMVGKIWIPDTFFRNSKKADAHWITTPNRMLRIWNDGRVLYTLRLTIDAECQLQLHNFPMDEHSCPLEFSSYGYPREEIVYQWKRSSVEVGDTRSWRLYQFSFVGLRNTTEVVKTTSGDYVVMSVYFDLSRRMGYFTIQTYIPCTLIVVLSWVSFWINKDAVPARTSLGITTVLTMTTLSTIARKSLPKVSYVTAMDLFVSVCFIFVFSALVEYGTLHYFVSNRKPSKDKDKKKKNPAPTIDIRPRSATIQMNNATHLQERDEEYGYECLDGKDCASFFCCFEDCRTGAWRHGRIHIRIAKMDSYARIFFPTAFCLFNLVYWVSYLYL

In the case of `NCCCC(=O)O` [GABA, γ-aminobutyric acid], the “nH (Hill slope) for reducing ^125I-MmTX2 binding” value in data set [1] came out at 0.99±0.18.
As for `NCc1cc(=O)[nH]o1` [[^3H]muscimol, reference compound], the Kd in data set [2] (SPMs, read-out: Kd of [^3H]muscimol (constrained fit parameter)) worked out at 1.75 nM.
On to `CN1[C@@H]2CC[C@H]1C[C@@H](OC(=O)C(CO)c1ccccc1)C2` (stereo partly shown) [atropine], for which the “competition with ^125I-rMmTX2 for binding to SPMs” value (“competition with ^125I-rMmTX2” for short) in data set [1] was “does not compete”.
Regarding `COc1cc2c3cc1Oc1cc(ccc1O)C[C@@H]1c4c(cc(OC)c(O)c4Oc4ccc(cc4)C[C@@H]3N(C)CC2)CC[N+]1(C)C` [d-tubocurarine], the “competition with ^125I-rMmTX2” value in data set [1] (ligand 10 μM) was “no competition is observed”.
With `CN1C(=O)CN=C(c2ccccc2)c2cc(Cl)ccc21` [diazepam], the “nH (Hill slope) for reducing ^125I-MmTX2 binding” value in data set [1] is −0.96±0.07. Further, the concentration for a half-maximal effect (EC50) in [1] (setting [19]) was found to be 4900 nM.
`COc1ccc(-c2ccc(=N)n(CCCC(=O)O)n2)cc1` [gabazine]: the “nH (Hill slope) for reducing ^125I-MmTX2 binding” value in data set [1] was found to be 1.00±0.07. The 50% effective concentration (EC50) in data set [1] (setting [19]) amounted to 200 nM.
For the molecule `N[C@@H](CCC(=O)O)C(=O)O` [glutamate], the “competition with ^125I-rMmTX2” value in data set [1] (ligand 0.1 mM) is recorded as “does not compete”.
As to `NCC(=O)O` [glycine], the “competition with ^125I-rMmTX2” value in data set [1] is “does not compete”.
As for `O=C(O)C1=CCNCC1` [isoguvacine], the “nH (Hill slope) for reducing ^125I-MmTX2 binding” value in [1] was found to be 1.02±0.29. In data set [1] (setting [20]), the concentration giving a half-maximal response (EC50) was found to be 275000 nM.
As for `NCc1cc(=O)[nH]o1` [muscimol, reference compound], the “frequency of Ca^2+ spikes compared to cells perfused with extracellular saline solution” value in data set [3] is given as 98.0±4.8%. Moreover, the EC50 in data set [4] was 5400 to 24000 nM; in [1] (setting [20]) it was 2100 nM; in data set [5] (muscimol alone, Hill fit, read-out: EC50 of GABAA receptor current amplitude), 4100 nM. For the same molecule, the “nH (Hill slope) for reducing ^125I-MmTX2 binding” value in data set [1] is 1.08±0.24. Besides, in [5] (100 nM rMmTX1, read-out: IC50 of muscimol for abolishing the potentiating effect of rMmTX1), the half-maximal inhibitory concentration (IC50) came out at 1100 nM. Also, the “nH coefficient of GABAA receptor current amplitude” value in data set [5] (muscimol alone) was determined as 1.4.
Regarding `CCCC(C)C1(CC)C(=O)NC(=O)NC1=O` (stereo not shown) [pentobarbital], in data set [1], the “nH (Hill slope) for reducing ^125I-MmTX2 binding” value is 0.98±0.07. Moreover, the EC50 in [1] (setting [20]) was determined as 4800 nM.
For ^125I-rMmTX2 (peptide), in data set [6], the Bmax (fmol/mg of SPM protein) turned out to be 532, the Kd was found to be 0.76 nM and the ratio of Bmax with/without PTX was determined as 2.01. In data set [7], the Kd is 0.38 nM. Also, the t1/2 of dissociation in [8] is 7.97 min. In [9], this molecule had a Bmax (fmol/mg of synaptic protein) of 264, a Kd of 0.51 nM, a half time duration of dissociation of 8 min and a koff of 0.0014 s⁻¹. This molecule came in with a kon in data set [9] of 3.7e+06 M⁻¹ s⁻¹.
On to cardiotoxin [CTX], for which the “competition with ^125I-rMmTX2” value in [1] (ligand 10 μM) is listed as “does not displace”.
Regarding picrotoxin [PTX], in data set [10], the action potential frequency result is listed as “increases more dramatically when compared to sMmTX1”. In addition, the “nH for potentiating ^125I-MmTX2 binding capacity” value in [1] is recorded as “+1.05±1.16”. Besides, the half-maximal effective concentration (EC50) in data set [1] (read-out: EC50 for potentiating ^125I-MmTX2 binding capacity to SPMs) is 3700 nM.
Regarding recombinant MmTX1 (rMmTX1) (peptide), the percent of the total [^3H]muscimol binding capacity competed in data set [11] was 40%. This molecule also displayed a Kd in data set [12] of 4.9 nM. Moreover, in [13], the factor of increase of the GABAA current elicited by 5 µM muscimol, with 1 nM rMmTX1 was determined as 1.24 fold and the factor of increase of the GABAA current elicited by 5 µM muscimol, with 10 nM rMmTX1 worked out at 1.22 fold. In data set [14], this molecule gave a Ki of 3 nM and a log Ki of -8.52.
In [14], recombinant MmTX2 (rMmTX2) (peptide) gave an inhibition constant (Ki) of 3.7 nM and a log Ki of -8.44.
As for “wild-type (WT) MmTX2, micrurotoxin2 purified from Micrurus mipartitus venom (peptide)”, in [14], the inhibitory constant (Ki) came to 0.8 nM and the log Ki is -9.09.
On to α-bungarotoxin, for which, in data set [1], the “competition with ^125I-rMmTX2” value is recorded as “no competition is observed”.

B1: Fas 2: animal toxin that targets AChE (protein, UniProt P0C1Z0 1-61, looked up)
Fasciculin-2: TMCYSHTTTSRAILTNCGENSCYRKSRRHPPKMVLGRGCGCPPGDDNLEVKCCTSPDKCNY
modifications: ends and bridges not checked
Regarding B1, the “competition with ^125I-rMmTX2” value in data set [1] (ligand 10 μM) is recorded as “does not compete”.

B2: rMmTX1: recombinant MmTX1 from a periplasmic expression system (protein)
peptide: LTCKTCPFTTCPNSESCPGGQSICYQRKWEEHRGERIERRCVANCPAFGSHDTSLLCCTRDNCN
modifications: ends and bridges not checked
On to B2, for which the “part of the total [^3H]muscimol binding capacity competed for” value in data set [2] (40 nM [^3H]muscimol) is “about 40%”. Moreover, the Kd in [2] (40 nM [^3H]muscimol, allosteric modulator fit, read-out: Kd in competition with [^3H]muscimol) is 4.9 ± 0.2 nM. In addition, in data set [15], the LD50 was found to be 0.027 mg/kg. For the same molecule, in data set [15], the behavioral signs result is “reduced activity combined with severe seizures”. In addition, in [1], the “displacing ^125I-rMmTX2 (in words)” value is “equally potent”. For the same molecule, the inhibitory constant (Ki) in data set [1] stood at 3 nM. Besides, in data set [5], the “effect on GABAA receptors in the absence of an agonist” value is on record as “no effect”. Also, in [5], the “increase of GABAA receptor-mediated currents” value is “up to 7 fold”. Moreover, the “Factor of GABAA current increase” value in data set [5] (0.1 μM muscimol + 100 nM rMmTX1) was 7.9 ± 2.9 (n = 2); in [5] (0.3 μM muscimol + 100 nM rMmTX1) it was 7.5 ± 1.2 (n = 4); in data set [5] (1.0 μM muscimol + 100 nM rMmTX1) it was 1.9 ± 0.4 (n = 3); in data set [5] (3 μM muscimol + 100 nM rMmTX1), 1.4 ± 0.1 (n = 6); in data set [5] (30 μM muscimol + 100 nM rMmTX1), 1.0 ± 0.1 (n = 4); in [5] (50 μM muscimol + 100 nM rMmTX1), 1.0 ± 0.1 (n = 3). Further, the “Cl^− current” value in data set [5] (0.1 μM muscimol together with 100 nM rMmTX1) was found to be 228±30 pA. In addition, the “muscimol concentration at the half-maximal potentiating effect of rMmTX1” value in [5] (100 nM rMmTX1) is reported as “about 1 μM”. In data set [5] (0.3 μM muscimol together with 100 nM rMmTX1, neurons without response to muscimol alone), this molecule came in with an inward current of 439±51 pA. Moreover, the “factor of GABAA current amplitude increase” value in [5] (5 μM muscimol + 1 nM rMmTX1, n=9) came to 1.24 ± 0.07; in data set [5] (5 μM muscimol + 10 nM rMmTX1, n=9), 1.22 ± 0.03; in data set [5] (5 μM muscimol + 100 nM rMmTX1, n=9), 1.99 ± 0.28; in data set [5] (5 μM muscimol + 300 nM rMmTX1, n=9), 1.69 ± 0.25. Moreover, in [5] (muscimol concentrations greater than 10 μM), the “toxin-induced potentiation at high muscimol” value is listed as “do not observe a toxin-induced potentiation”. Further, the “activity when injected intravenously” value in data set [16] is “inactive”.

B3: MmTX1 (protein, listed as Micrurus mipartitus)
chain: B2 peptide
modifications: ends and bridges not checked
As to B3, the “displacing ^125I-rMmTX2 (in words)” value in data set [1] was “equally potent”.

B4: rMmTX2: recombinant MmTX2 from a periplasmic expression system (protein)
peptide: B2 peptide with R33H
modifications: ends and bridges not checked
Take B4: in [15], the LD50 stood at 0.010 mg/kg and the behavioral signs result is on record as “reduced activity combined with severe seizures”. Further, in data set [1], the “displacing ^125I-rMmTX2 (in words)” value is “equally potent” and the inhibition constant (Ki) worked out at 3.7 nM. The flaccid paralysis result in data set [16] (injected intravenously into mice) was “no flaccid paralysis”. In addition, the “activity when injected intravenously” value in data set [16] is “inactive”.

B5: ^125I-rMmTX2: MmTX2 radioactively labeled by lacto-peroxidase-catalyzed iodination (protein)
peptide: B2 peptide with R33H
modifications: ends and bridges not checked; also: 125I iodination (lactoperoxidase-catalysed), site not given here
With B5, the “second-order kinetic constant of association (k+1)” value in [17] (1 to 4 nM ligand, SPMs) is reported as 3.7±0.5×10^6 M^−1 s^−1. Also, in data set [17] (dissociation after 1000-fold excess of unlabeled rMmTX2), the “first-order kinetic constant (k−1)” value is 0.0014 ± 0.0004 s⁻¹. In addition, the “half time duration of dissociation” value in data set [17] (dissociation from SPMs) is around 8 min. Moreover, the Kd in data set [17] (in the presence of 1 mM PTX, read-out: Kd with PTX) turned out to be 0.76 ± 0.18 nM; in [17] (ratio of both kinetic constants, read-out: true dissociation value (Kd=k−1/k+1)) it was 0.38 ± 0.05 nM; in data set [17] (read-out: Kd (saturation binding at equilibrium)), 0.51 ± 0.09 nM.

B6: sMmTX1-HRK: sMmTX1 mutated at 4His, 28Arg, 47Lys and acetylated at the N-terminus, SEQ ID NO: 21 (peptide)
chain: Ac-LTCHTCPFTTCPNSESCPGGQSICYQRRWEEHRGERIERRCVANCPKFGSHDTSLLCCTRDNCN
modifications: ends and bridges not checked
With B6, the “effect on α1β2γ2 GABAA receptor currents” value is “currents are potentiated and receptor desensitization tends to accelerate” in data set [18] (100 nM muscimol + 100 nM toxin, −70 mV); “potentiating effect is diminished whereas desensitization effect is unaltered” in [18] (300 nM muscimol).
